Measurements taken from patent publication US20130203680A1, “FOLATE CONJUGATES FOR TREATING INFLAMMATION OF THE EYE” (ENDOCYTE, INC., priority 2010, published 2013).

Tests used:
[1] = Plasma pharmacokinetics of EC0565 after a single intravenous or subcutaneous dose; conditions: for Tmax: sc
Procedure: The bioavailability of EC0565 after subcutaneous injection was measured. Female Lewis rats with rounded tip jugular vein catheters (Harlan) were fed regular rodent diet. The treated animals were given a single intravenous or subcutaneous dose of EC0565 at 2 μmmol/kg. […] For subcutaneous administration FIG. 18b, whole blood samples (300 μl) were collected from the animals at 1 min, 10 min, 30 min, 1 h, 2 h, 3 h, 4 h, 8 h, and 12 h post injection. The blood samples were placed into anti-coagulant tubes containing 1.7 mg/mL of K3-EDTA and 0.35 mg/mL of N-maleoyl-beta-alanine (0.35 mg/mL). Plasma samples were obtained by centrifugation for 3 min at ˜2,000 g and stored at −80° C. The amount of EC0565 and its released base drug (everolimus) were determined by HPLC using the EC0565 injection solution as the standard.

physchem = conditions: pH 7.4
[2] = test system: Proliferating Cell Nuclear Antigen (PCNA); assay: Western blot of PCNA in synchronized RAW264.7 cells; type: cell-based, murine; conditions: 1-1000 nM; EC0565 2 h treatment, 48-h chase; everolimus 48 h
Procedure: To study anti-proliferative effect of EC0565, FR-positive murine macrophage-like RAW264.7 cells (serum deprived for 36 h for synchonization) were given a 2 h treatment of EC0565 (1, 10, 100, and 1000 nM) without or with 1000× excess of EC17 (as a folate competitor) followed by a 48-h chase in drug-free medium. For comparison, the cells were also treated for 48 h with everolimus (1, 10, 100, and 1000 nM). […] Western blot analysis was carried out on whole cell lysates using a monoclonal antibody specific for PCNA (PC10, Cell Signaling, Danvers, Mass.). After incubation with a peroxidase-conjugated secondary antibody, the signals were visualized using SuperSignal West Pico Chemiluminescent Substrate system (ThermoScientific, Waltham, Mass.) following the manufacturer's instructions. The images were acquired using a G:BOX Chemi HR 16 gel imaging system (Syngene, Frederick, Md.).

[3] = rats; cited from earlier work
[4] = cited from earlier work
[5] = female, Lewis, rat, in vivo, 2 μmmol/kg

Row | Tmax ([1]; female, Lewis, rat, in vivo) [h] | Structure (SMILES) | bioavailability [1, 5] [%] | Tmax [1, 5] [h] | free drug (everolimus) exposure/release in plasma, based on AUC ([1]; single intravenous dose of EC0565 at 2 μmmol/kg) | free drug (everolimus) exposure/release in plasma, based on AUC ([1]; single subcutaneous dose of EC0565 at 2 μmmol/kg) [%] | solubility (physchem) [µM] | effect on PCNA activities [2] | oral bioavailability [3] [%] | water solubility [4] [µM]
1 |  | CO[C@H]1C[C@@H]2CC[C@@H](C)[C@@](O)(O2)C(=O)C(=O)N2CCCC[C@H]2C(=O)O[C@H]([C@H](C)C[C@@H]2CC[C@@H](OCCOC(=O)OCCSSC[C@H](NC(=O)[C@H](CCC(=O)NC[C@H](O)[C@@H](O)[C@H](O)[C@H](O)CO)NC(=O)[C@H](CCC(=O)O)NC(=O)[C@H](CCC(=O)NC[C@H](O)[C@@H](O)[C@H](O)[C@H](O)CO)NC(=O)[C@H](CCC(=O)O)NC(=O)[C@H](CCC(=O)NC[C@H](O)[C@@H](O)[C@H](O)[C@H](O)CO)NC(=O)CC[C@H](NC(=O)c3ccc(NCc4cnc5nc(N)[nH]c(=O)c5n4)cc3)C(=O)O)C(=O)O)[C@H](OC)C2)CC(=O)[C@H](C)/C=C(\C)[C@@H](O)[C@@H](OC)C(=O)[C@H](C)C[C@H](C)/C=C/C=C/C=C/1C [EC0565] | ~128 | ~1 | approximately 18% | ~17 | > 1000 |  |  | 
2 | ~1 | CO[C@H]1C[C@@H]2CC[C@@H](C)[C@@](O)(O2)C(=O)C(=O)N2CCCC[C@H]2C(=O)O[C@H]([C@H](C)C[C@@H]2CC[C@@H](OCCO)[C@H](OC)C2)CC(=O)[C@H](C)/C=C(\C)[C@@H](O)[C@@H](OC)C(=O)[C@H](C)C[C@H](C)/C=C/C=C/C=C/1C [everolimus] |  |  |  |  |  | inhibited PCNA activities | ~12 | 1 to 10
